Where a chain is given by its changes, count along the chain named. In names and notes the source's numbering stands.
What was measured:
soybean seeds = test: Free amino acid concentration in seeds of soybean transformed with threonine deaminase constructs (TCA extraction, OPA HPLC, fluorescence); assay type: in vivo; details: transformed soybean plants
Experimental: The concentration of free isoleucine in seeds was determined by crushing approximately 50 mg of seed, placing the crushed material in a centrifuge vial, and then weighing. One mL of 5% trichloroacetic acid was added to each sample vial. The samples were mixed, using a vortex mixer, at room temperature for 15 minutes. The samples were then spun in a microcentrifuge for 15 minutes at 14,000 rpm. Some of the supernatant was then removed, placed in a HPLC vial and sealed. Samples were kept at 4° C. prior to analysis. A single seed analysis was performed on all R1 soybean seed, with 5 seeds per event, and one injection per seed. For subsequent generations representing the R2 and R3 seeds, a bulk assay having 10 seeds for each event, and one injection per event was used. The samples were analyzed using the Agilent Technologies 1100 series HPLC system. A 0.5 μL aliquot of the sample was derivatized with 2.5 μL of OPA (o-phthalaldehyde and 3-mercaptopropionic acid in borate buffer, Hewlett-Packard PN 5061-3335) reagent in 10 μl of 0.4 N borate buffer pH 10.2 (Hewlett-Packard, PN 5061-3339). The derivative was injected onto an Agilent Technologies Eclipse® XDB-C18 3.5 μm, 4.6×75 mm at 2 mL/min flow rate. […] Isoleucine concentrations were measured using fluorescence detection (excitation at 340 nm, emission at 450 nm) and values were calculated from a standard curve ranging from 10 to 800 μg/mL. […]

[1] = target: T1, Arabidopsis threonine deaminase (Arabidopsis thaliana, UniProt Q9ZSS6); test: Kinetics data for Arabidopsis threonine deaminases (comparison in Table 4, FIG. 6); assay type: biochemical; details: initial velocity vs threonine concentration
T1 sequence (Q9ZSS6 92-592): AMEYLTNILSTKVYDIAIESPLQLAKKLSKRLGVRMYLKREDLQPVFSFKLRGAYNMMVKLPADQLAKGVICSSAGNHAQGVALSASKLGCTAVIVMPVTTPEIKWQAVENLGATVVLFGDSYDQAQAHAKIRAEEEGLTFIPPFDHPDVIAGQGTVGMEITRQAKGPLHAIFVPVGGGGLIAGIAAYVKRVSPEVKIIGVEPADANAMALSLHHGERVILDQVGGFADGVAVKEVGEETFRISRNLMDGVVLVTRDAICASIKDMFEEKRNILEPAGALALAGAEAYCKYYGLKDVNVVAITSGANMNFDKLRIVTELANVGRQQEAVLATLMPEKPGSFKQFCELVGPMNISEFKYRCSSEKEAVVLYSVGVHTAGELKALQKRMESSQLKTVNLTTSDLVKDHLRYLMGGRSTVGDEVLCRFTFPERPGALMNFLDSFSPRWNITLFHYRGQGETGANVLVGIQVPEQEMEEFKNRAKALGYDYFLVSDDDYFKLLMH

[2] = system: E. coli threonine deaminase; test: Steady state kinetic analysis of E. coli ilvA threonine deaminase variants, continuous assay of α-ketobutyrate at 230 nm, with and without L-isoleucine; assay type: biochemical; details: for Km: E. coli ilvA TD expressed in E. coli, crude extract, pH 7.5, read-out: Km^Thr; for IC50: inhibition of TD activity by L-isoleucine
Experimental: Before conducting further transformation experiments using the isolated ilvA alleles in transgenic plants, each allele was over-expressed in E. coli to determine its kinetic parameters. Kinetics data on threonine deaminases containing various mutations, and a comparison to data available for threonine deaminases from Arabidopsis, are provided in Table 4. The E. coli ilvA481 variants were subcloned into pSE380 (Invitrogen, Carlsbad, Calif.) and expression was induced with 0.2 mM IPTG at 37° C. for 3 hours. Expression of the E. coli alleles was high and fairly consistent as visualized by SDS-PAGE.
The effects of amino acid substitutions at Leu481 in ilvA were assessed by steady state kinetic analysis in the presence and absence of L-isoleucine. Threonine deaminase polypeptides for use in in vitro kinetics studies were extracted from E. coli cells in assay buffer containing 50 mM potassium phosphate (pH7.5), 1 mM dithiothreitol (DTT), and 0.5 mM ethylenediamine-tetraacetate. A continuous assay method was employed to monitor the formation of α-ketobutyrate directly at 230 nm (ε230 (pH7.5)=540 M^−1cm^−1 whereas threonine absorption was negligible (˜1%)). The assay was initiated by adding 20 μl of crude extract diluted 1:20 v/v to the assay vessel containing L-threonine (between 2.5 mM and 50 mM) in a final volume of 1 mL. For L-isoleucine inhibition, L-isoleucine was added between 0 mM and 20 mM. The kinetic parameters were determined by fitting the data points to the equations using GraFit 4.0 software (Erithacus Software, Surrey, UK). For comparison, the kcat values of L481 alleles were normalized to the kcat value for the wild type IlvA enzyme. Enzymes represented in FIG. 7 are: wild type E. coli threonine deaminase (circles), L481Y TD enzyme (diamonds), L481F TD enzyme (triangles), and the L481T TD enzyme (squares). Table 4 also summarizes the kinetic parameters of the variant threonine deaminase enzymes produced by the various E. coli ilvA alleles.

ilvA219: mutagenized E. coli threonine deaminase gene containing the L447F mutation
free isoleucine concentration in the seed (soybean seeds): > 600 µg/g

ilvA466: mutagenized E. coli threonine deaminase gene containing the L481F mutation
free isoleucine concentration in the seed (soybean seeds): > 1300 µg/g

B1: Wild type Arabidopsis: wild type Arabidopsis threonine deaminase polypeptide (protein, UniProt Q9ZSS6 92-592, looked up)
Threonine dehydratase …: T1 sequence (Q9ZSS6 92-592)
cooperativity in substrate binding [1]: independent activity

B2: L481K: E. coli threonine deaminase, Leu at position 481 replaced with Lys (protein, listed as Escherichia coli)
chain: MADSQPLSGAPEGAEYLRAVLRAPVYEAAQVTPLQKMEKLSSRLDNVILVKREDRQPVHSFKLRGAYAMMAGLTEEQKAHGVITASAGNHAQGVAFSSARLGVKALIVMPTATADIKVDRLRGFGGEVLLHGANFDEAKRKAIELSQQQGFTWVPPFDHPMVIAGQGTLALELLQQDAHLDRVFVPVGGGGLAACVAVLIKQLMPQIKVIAVEAEDSACLKAALDAGHPVDLPRVGLFAEGVAVKRIGDETFRLCQEYLDDIITVDSDAICAAMKDLFEDVRAVAEPSGALALAGMKKYIALHNIRGERLAHILSGANVNFHGLRYVSERCELVEQREALLAVTIPEEKGSFLKFCQLLGGRSVTEFNYRFADAKNACIFVGVRLSRGLEERKEILQMLNDGGYSVVDLSDDEMAKLHVRYMVGGRPSHPLQERLYSFEFPESPGALLRFLNTLGTYWNISLFHYRSHGTDYGRVLAAFEKGDHEPDFETRLNELGYDCHDETNNPAFRFFLAG
enzyme activity ([2]; expressed in E. coli): poor enzyme activity

B3: L447F (ilvA219): E. coli threonine deaminase, Leu at position 447 replaced with Phe (protein, listed as Escherichia coli)
chain: B2 chain with L447F, K481L
cooperativity in substrate binding ([2]; initial velocity vs threonine concentration): negative cooperativity

B4: L481M: E. coli threonine deaminase, Leu at position 481 replaced with Met (protein, listed as Escherichia coli)
chain: B2 chain with K481M
Km [2]: 6.4 mM | IC50 [2]: 100 µM

B5: L481V: E. coli threonine deaminase, Leu at position 481 replaced with Val (protein, listed as Escherichia coli)
chain: B2 chain with K481V
Km [2]: 7.1 mM | IC50 [2]: 97 µM
